Where a chain is given by its changes, count along the chain named.
Columns and labels:
[1] = biological target: T1, recombinant VlsE protein (of strain B31) (Borrelia burgdorferi strain B31); assay: titration on VlsE, given as ED50; method not given
T1 construct: domain: vlsE cassette region (including the IR1 through VR6 regions); Preparation of about 65% purity; Used as immunogen, as ELISA antigen and on beads; also called VISE; recombinant B31 VlsE

IR6 peptide = biological target: T2, IR6 peptide (Borrelia burgdorferi strain B31, biotin-labeled on the N terminus); assay: ELISA of purified rMAb on coated peptide
T2 construct: Synthetic peptide based on VlsE of strain B31 (GenBank U76405); also called invariant region 6
T2 peptide: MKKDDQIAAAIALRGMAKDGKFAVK

IR4 peptide = biological target: T3, IR4 peptide (Borrelia burgdorferi strain B31, biotin-labeled on the N terminus); assay: not given; it says that supporting data are given elsewhere in the disclosure (ELISA)
T3 construct: also called invariant region 4
T3 peptide: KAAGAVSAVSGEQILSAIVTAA

B1: 1D11 recombinant monoclonal antibody (re-cloned from the second most abundant VH and VL sequences) (antibody, V domains shown)
VH: QSLVESGGGLVQPEGSLTLTCKASGFSFSSGYDMCWVRQAPGKGLEYIACIDAGDDITHYASWVKGRFTVSKTSSTTVTLQLNSLTVADTATYFCGRFWDLWGPGTLVTVSS
VL: SVLTQTPSPVSAAVGGTVTINCQSSQSVYDSTWLGWYQQKPGQPPKLLIYKASNLASGVPSRFKGSGSGTHFTLTISDLECDDAATYYCVGGYSGSVDNWAFGGGTEVVVK
notes: Rabbit recombinant monoclonal IgG; the rabbit constant regions are cited to the literature; The variable fragments were cloned into pcDNA3.4 and expressed in mouse cells; also called ID11; new rMAb
EC50 [1]: 0.0109 µg/mL
binding result (IR6 peptide): binds

B2: antibody with VH SEQ ID NO: 3 and VL SEQ ID NO: 4 (antibody, V domains shown)
VH: QSLEESGGGLFKPTDTLTLTCTVSGIDLSSYAMIWVRQAPGKGLEWIGYIWSSGRIWYASWAKGRFTISRTSTTVDLKLASPTTEDTATYFCARLWDIWGPGTLVTVSS
VL: AQVLTQTPSSVSAAVGGTVTISCQASQSLYNGVNLAWYQQKPGQPPKLLIFGASNLESGVSSRFRGSGSGTQFTLTISGVQCDDAATYYCLGEFSCSSADCLAFGGGTEVVVK
binding result (IR4 peptide): binds

B3: antibody with VH SEQ ID NO: 5 and VL SEQ ID NO: 6 (antibody, V domains shown)
VH: QSVEESGGRLVTPGTPLTLTCTVSGFPLSSYSMAWVRQAPGKGLEYIGFINTDGSAYYASWAKGRITISKTSTTVELKITSPTTEDTATYFCGTGNIWGPGTLVTVSS
VL: AQVLTQTPSSVSAAVGGTVTINCQASQSVSNNNVLAWFQQKPGQPPKRLIYSALTLDSGVPSRFKGSGSGTHFTLTISGVQCDDAATYYCAGGYDCSSNDCIAFGGGTEVVVK
binding result (IR4 peptide): binds

B4: antibody with VH SEQ ID NO: 7 and VL SEQ ID NO: 8 (antibody, V domains shown)
VH: B3 VH with P27S, A34G, F49M, N51I, T52S, D53N, G54N, A56T
VL: B3 VL with S9A, V29T, V34A, A103T
binding result (IR4 peptide): binds

Reference: patent US20250101086A1 (RESEARCH FOUNDATION OF THE CITY UNIVERSITY OF NEW YORK, published 2025)
